Target: Frizzled-7 receptor, endogenous (rat (endogenous in fetal rat brain growth cone particles and hippocampal neurons))

percent of hippocampal neurons with an identifiable Tau-1 containing axon (stage 3) after 20 h with 1.35 nM Wnt3a: > 55%
Substance: Wingless-type family member 3A (recombinant mouse Wnt3a) (from UniProt P27467 19-352) (ligand)

From paper PMC3829478
